Publication PMC4476040

Target: N-HGbRL, the N-terminal globin domain of HGbRL from Methylacidiphilum infernorum (Methylacidiphilum infernorum)
Assay: crystal structure; open, imidazole-bound form; space group C2, two subunits in the asymmetric unit; crystals at 20 °C in 3.5 M 1,6-hexanediol, 0.1 M sodium citrate pH 5.6; 1.94 Å

“N-HGbRL, the N-terminal globin domain of HGbRL from Methylacidiphilum infernorum (domain or fragment)” was tested. Which stoichiometry N did it give?
Its stoichiometry N is 2.
